Results taken from patent US6127119, “Nucleic acid ligands of tissue target” (NeXstar Pharmaceuticals, Inc.).

How the values were obtained:
Fibrinogen [1] = target: T1, Fibrinogen (Homo sapiens, UniProt P02671-2;P02675;P02679-2 P02671-2:20-644,P02675:31-491,P02679-2:27-437); experiment: filter; low class; printed l mM, probably uM; details: chain copies: 2
Fibrinogen [2] = target: T1, Fibrinogen; experiment: filter; moderate fibrinogen affinity; details: chain copies: 2
Fibrinogen [3] = target: T1, Fibrinogen; experiment: filter; high class; printed l mM, probably uM; details: chain copies: 2
[4] = target: Fibrin (human plasma clot) (Homo sapiens, UniProt P02671-2;P02675;P02679-2 P02671-2:36-644,P02675:45-491,P02679-2:27-437); experiment: competition; homogenized plasma clot, Scatchard high-affinity component; details: tags: clot from recalcified plasma, complex target; chain copies: 2
Chain of Fibrin (human plasma clot) (P02671 other isoform, or with tags, fused parts or gaps, chain 1 of 3): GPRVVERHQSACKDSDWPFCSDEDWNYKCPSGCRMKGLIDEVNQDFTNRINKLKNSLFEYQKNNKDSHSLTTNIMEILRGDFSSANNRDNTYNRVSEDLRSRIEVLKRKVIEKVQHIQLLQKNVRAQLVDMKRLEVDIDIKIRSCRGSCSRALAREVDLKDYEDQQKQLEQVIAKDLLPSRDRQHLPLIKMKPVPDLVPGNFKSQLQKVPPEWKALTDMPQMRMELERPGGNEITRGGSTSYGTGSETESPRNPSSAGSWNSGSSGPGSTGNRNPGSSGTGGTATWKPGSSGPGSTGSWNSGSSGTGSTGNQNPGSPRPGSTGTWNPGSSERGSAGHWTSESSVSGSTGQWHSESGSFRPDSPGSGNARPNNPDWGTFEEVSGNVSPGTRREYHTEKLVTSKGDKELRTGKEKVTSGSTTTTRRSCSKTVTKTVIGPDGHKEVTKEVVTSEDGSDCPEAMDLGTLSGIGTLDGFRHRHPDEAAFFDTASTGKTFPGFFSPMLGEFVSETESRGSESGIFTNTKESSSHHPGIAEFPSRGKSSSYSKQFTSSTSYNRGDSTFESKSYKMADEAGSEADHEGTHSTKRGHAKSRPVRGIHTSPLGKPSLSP
Chain of Fibrin (human plasma clot) (P02675 45-491, chain 2 of 3): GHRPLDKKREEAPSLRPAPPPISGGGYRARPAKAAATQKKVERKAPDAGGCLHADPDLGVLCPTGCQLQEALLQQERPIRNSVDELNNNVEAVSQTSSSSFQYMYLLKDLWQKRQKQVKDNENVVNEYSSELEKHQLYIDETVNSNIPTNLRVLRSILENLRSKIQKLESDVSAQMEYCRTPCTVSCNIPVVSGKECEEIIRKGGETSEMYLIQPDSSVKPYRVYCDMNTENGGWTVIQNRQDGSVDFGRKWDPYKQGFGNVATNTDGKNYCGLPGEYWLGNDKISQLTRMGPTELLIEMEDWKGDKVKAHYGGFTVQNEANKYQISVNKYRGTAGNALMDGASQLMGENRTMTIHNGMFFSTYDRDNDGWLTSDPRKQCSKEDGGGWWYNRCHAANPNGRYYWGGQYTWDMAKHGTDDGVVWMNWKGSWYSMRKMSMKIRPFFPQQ
Chain of Fibrin (human plasma clot) (P02679 other isoform, or with tags, fused parts or gaps, chain 3 of 3): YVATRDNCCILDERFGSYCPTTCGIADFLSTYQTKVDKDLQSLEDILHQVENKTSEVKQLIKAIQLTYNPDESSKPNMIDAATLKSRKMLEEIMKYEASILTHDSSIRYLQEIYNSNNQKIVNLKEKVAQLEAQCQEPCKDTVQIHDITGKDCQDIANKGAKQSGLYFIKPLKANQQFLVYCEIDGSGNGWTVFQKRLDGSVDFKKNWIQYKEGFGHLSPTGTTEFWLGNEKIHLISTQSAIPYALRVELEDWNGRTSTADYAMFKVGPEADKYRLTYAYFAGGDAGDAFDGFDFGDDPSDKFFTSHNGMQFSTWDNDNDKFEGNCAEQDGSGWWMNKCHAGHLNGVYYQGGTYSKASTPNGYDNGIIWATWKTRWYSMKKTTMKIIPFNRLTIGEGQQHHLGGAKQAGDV
Description: The two best binders in the PE model which had the lowest affinity for fibrinogen were pursued. Both of these clones resided in Motif II. Clone 69 (SEQ ID NO: 55) was analyzed for binding in vitro homogenized clot. By adding a fixed amount of radiolabeled clone 69 (2 nM) to a fixed amount of clot (200 μliters plasma equivalent) with increasing amount of non-radiolabeled ligand, binding could be quantitated. Analyzing data in a Scatchard format yield a two-component curve with high and low affinity binding components. […] These sites were saturable. […] As such it appears that the binding of a specific ligand to clots is specific and stable.

T1 sequence (P02671 other isoform, or with tags, fused parts or gaps, chain 1 of 3): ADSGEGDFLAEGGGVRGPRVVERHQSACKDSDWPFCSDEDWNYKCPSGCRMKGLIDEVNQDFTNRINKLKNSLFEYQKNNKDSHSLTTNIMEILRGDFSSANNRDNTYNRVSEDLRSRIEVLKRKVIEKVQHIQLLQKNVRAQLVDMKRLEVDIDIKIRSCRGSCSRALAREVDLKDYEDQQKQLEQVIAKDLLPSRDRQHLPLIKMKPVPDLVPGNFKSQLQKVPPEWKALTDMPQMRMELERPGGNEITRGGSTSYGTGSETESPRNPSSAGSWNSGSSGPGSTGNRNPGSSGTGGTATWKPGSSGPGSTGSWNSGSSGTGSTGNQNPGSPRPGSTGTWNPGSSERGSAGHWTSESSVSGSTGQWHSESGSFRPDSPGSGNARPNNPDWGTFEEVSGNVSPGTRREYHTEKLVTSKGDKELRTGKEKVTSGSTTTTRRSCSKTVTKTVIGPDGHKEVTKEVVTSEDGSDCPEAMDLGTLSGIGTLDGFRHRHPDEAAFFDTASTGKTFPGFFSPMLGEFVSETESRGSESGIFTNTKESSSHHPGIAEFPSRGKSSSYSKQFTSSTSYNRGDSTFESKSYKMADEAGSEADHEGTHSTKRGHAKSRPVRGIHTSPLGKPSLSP
T1 sequence (P02675 31-491, chain 2 of 3): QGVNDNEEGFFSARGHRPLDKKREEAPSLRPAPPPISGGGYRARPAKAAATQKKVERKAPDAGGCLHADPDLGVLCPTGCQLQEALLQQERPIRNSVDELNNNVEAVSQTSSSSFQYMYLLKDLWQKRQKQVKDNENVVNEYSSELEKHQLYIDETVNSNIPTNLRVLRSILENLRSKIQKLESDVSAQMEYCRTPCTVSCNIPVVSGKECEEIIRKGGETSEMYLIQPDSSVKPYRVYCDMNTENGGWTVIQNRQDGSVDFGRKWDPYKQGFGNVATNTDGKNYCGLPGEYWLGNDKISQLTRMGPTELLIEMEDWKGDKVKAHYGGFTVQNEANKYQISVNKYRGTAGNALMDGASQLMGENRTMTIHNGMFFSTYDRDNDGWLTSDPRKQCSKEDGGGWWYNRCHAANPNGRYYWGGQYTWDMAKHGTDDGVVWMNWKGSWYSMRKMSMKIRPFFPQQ
T1 sequence (P02679 other isoform, or with tags, fused parts or gaps, chain 3 of 3): as the sequence (P02679 other isoform, or with tags, fused parts or gaps, chain 3 of 3) above

Binder | Kd (Fibrinogen [1]) | Kd (Fibrinogen [3]) | further results
FCN54 (ssRNA, 2'-F pyrimidines) RNA: GGGAGAUAAGAAUAAACGCUCAACUGGGCUCAUCCGGCGAAUGAUGCAAGGAAGAUUUCACAUUUCGACAGGAGGCUCACAACAGGC | > 1000 nM |  | 
FCN25 (ssRNA, 2'-F pyrimidines) RNA: GGGAGAUAAGAAUAAACGCUCAAGAUAUACUAACUUUCUUUGAAAGCCAAAAGUAUUAAUGCGUUCGACAGGAGGCUCACAACAGGC | > 1000 nM |  | 
FCN48 (ssRNA, 2'-F pyrimidines) RNA: GGGAGAUAAGAAUAAACGCUCAAGAUAUACUAACUUUGUUUGAAAGCCAAAAGUAUUAAUGCGUUCGACAGGAGGCUCACAACAGGC |  |  | binding result (Fibrinogen [2]): binds
FCN69 (ssRNA, 2'-F pyrimidines) RNA: GGGAGAUAAGAAUAAACGCUCAAGAUUGACACGCACUCCAAUGGCUCUGAAGUGUUCGUGUGCUUCGACAGGAGGCUCACAACAGGC | > 1000 nM |  | 
FCN21 (ssRNA, 2'-F pyrimidines) RNA: GGGAGAUAAGAAUAAACGCUCAAAGUUUGGAUUCGGCAGGUGCUGAGACUUUGAUAGCCACUAUUCGACAGGAGGCUCACAACAGGC | > 1000 nM |  | 
FCN29 (ssRNA, 2'-F pyrimidines) RNA: GGGAGAUAAGAAUAAACGCUCAACUGUGCAGUAACUGCGGAUGAGACCAACCGGAUGGCUCAACUUCGACAGGAGGCUCACAACAGGC |  | < 1000 nM | 
FCN27 (ssRNA, 2'-F pyrimidines) RNA: GGGAGAUAAGAAUAAACGCUCAAAAAGUCGUGUGCGAGAGGCUCAGAUUUAAUGCGGAGGAUUCGACAGGAGGCUCACAACAGGC | > 1000 nM |  | 
FCN26 (ssRNA, 2'-F pyrimidines) RNA: GGGAGAUAAGAAUAAACGCUCAAUCCAAGGACCAAACGGGUGUUCGGCAGUGGACUUUAGCAAUUCGACAGGAGGCUCACAACAGGC |  | < 1000 nM | 
FCN31 (ssRNA, 2'-F pyrimidines) RNA: GGGAGAUAAGAAUAAACGCUCAAUCUGUUGGUUCAAAGACUUGCUAAGGGGUCGAAGCACCCUUUCGACAGGAGGCUCACAACAGGC |  |  | binding result (Fibrinogen [2]): binds
FC9 (ssRNA, 2'-F pyrimidines) RNA: GGGAGAUAAGAAUAAACGCUCAAGCAAUCUCGGACUAGACCAACGACCUUCGUUUGACGCUCAUUCGACAGGAGGCUCACAACAGGC | > 1000 nM |  | 
FCN61 (ssRNA, 2'-F pyrimidines) RNA: GGGAGAUAAGAAUAAACGCUCAAGCAAUCUCGGACGAGACUAACGACCUUCGUUUGACGCUUAUUCGACAGGAGGCUCACAACAGGC |  | < 1000 nM | 
FCN57 (ssRNA, 2'-F pyrimidines) RNA: GGGAGAUAAGAAUAAACGCUCAAACAAUCUCGGACUAGACUAACGACCUUCGUUUGACGCUUAUUCGACAGGAGGCUCACAACAGGC |  | < 1000 nM | 
FC69 (ssRNA, 2'-F pyrimidines) RNA: GGGAGAUAAGAAUAAACGCUCAAACAAAUGUGCGCCCUUGGACGAAGUUAACUCGGACGGUUCUUCGACAGGAGGCUCACAACAGGC |  |  | Kd [4]: 14.1 nM
FCN28 (ssRNA, 2'-F pyrimidines) RNA: GGGAGAUAAGAAUAAACGCUCAAUGGGCUACAUGUGAGUACACCAGCGUGAGAGUUCUUAGGUUCGACAGGAGGCUCACAACAGGC |  | < 1000 nM | 
FCN49 (ssRNA, 2'-F pyrimidines) RNA: GGGAGAUAAGAAUAAACGCUCAAGAAUGGAGCCAAGAAAGACAGCGAUGUCUCGGACGAUGAGUUCGACAGGAGGCUCACAACAGGC | > 1000 nM |  | 
FCN50 (ssRNA, 2'-F pyrimidines) RNA: GGGAGAUAAGAAUAAACGCUCAAGAAUGGAGCCAGGAAAGACAGCGAUGUCUCGGACGAUGAGUUCGACAGGAGGCUCACAACAGGC |  |  | binding result (Fibrinogen [2]): binds
FCN58 (ssRNA, 2'-F pyrimidines) RNA: GGGAGAUAAGAAUAAACGCUCAAGGAUGGAGCCAAGAAAGACAGCGAUGUCUCGGACGAUGAGUUCGACAGGAGGCUCACAACAGGC | > 1000 nM |  | 
FCN12 (ssRNA, 2'-F pyrimidines) RNA: GGGAGAUAAGAAUAAACGCUCAAAGAGAGGAACUGCGAUUCAGACCAAAACGGAAAUGGCUGUUUCGACAGGAGGCUCACAACAGGC | > 1000 nM |  | 
FCN56 (ssRNA, 2'-F pyrimidines) RNA: GGGAGAUAAGAAUAAACGCUCAACGGCUCGAUGCUAGCUGGGACGGCUCAUUGAGACUGGUUGUUCGACAGGAGGCUCACAACAGGC | > 1000 nM |  | 

Binder | Kd (Fibrinogen [1]) | Kd (Fibrinogen [3]) | further results
FCN13 (ssRNA, 2'-F pyrimidines) RNA: GGGAGAUAAGAAUAAACGCUCAACGUGAUGACAGCUCGGACGGCUCAUUGCGCGGAGUAGCUAUUCGACAGGAGGCUCACAACAGGC | > 1000 nM |  | 
FC53 (ssRNA, 2'-F pyrimidines) RNA: GGGAGAUAAGAAUAAACGCUCAAGCGGGGAGCUCCUCGAGAAACUGAGUUCAACUUCCCAGGUUUCGACAGGAGGCUCACAACAGGC |  | < 1000 nM | 
FCN24 (ssRNA, 2'-F pyrimidines) RNA: GGGAGAUAAGAAUAAACGCUCAAAUGAGUAGACCGAGGAAGCACCCGGCUCUCAAAUGAGUGAUUCGACAGGAGGCUCACAACAGGC |  |  | binding result (Fibrinogen [2]): binds
FCN64 (ssRNA, 2'-F pyrimidines) RNA: GGGAGAUAAGAAUAAACGCUCAAAUGAGUAGACCGAGGAAGCACCCGGCUCUCAAAUGACUGAUUCGACAGGAGGCUCACAACAGGC |  |  | binding result (Fibrinogen [2]): binds
FCN18 (ssRNA, 2'-F pyrimidines) RNA: GGGAGAUAAGAAUAAACGCUCAAAUGAACGACCGCGGGCAGUCGCGUUCAAAUGAGUGGUUUUUUCGACAGGAGGCUCACAACAGGC | > 1000 nM |  | 
FCN36 (ssRNA, 2'-F pyrimidines) RNA: GGGAGAUAAGAAUAAACGCUCAAAGCAGAUGGUGCUGAGGUAUCAUGAAGACGCUGACGCUUAUUCGACAGGAGGCUCACAACAGGC |  |  | binding result (Fibrinogen [2]): binds
FCN65 (ssRNA, 2'-F pyrimidines) RNA: GGGAGAUAAGAAUAAACGCUCAAAGCGCUAGAUGGACGAGAGACUUUUAAGUAGCAAGCGGUAUUCGACAGGAGGCUCACAACAGGC |  | < 1000 nM | 
FCN22 (ssRNA, 2'-F pyrimidines) RNA: GGGAGAUAAGAAUAAACGCUCAAGUGAGAAAUGUCGGGGGCGAUGACUUGGACGGUCCACCGUUCGACAGGAGGCUCACAACAGGC | > 1000 nM |  | 
FCN9 (ssRNA, 2'-F pyrimidines) RNA: GGGAGAUAAGAAUAAACGCUCAACGUUGAAAUCGCUCCUCAGUGUGAGUUGAAUCAGCUGACCUUCGACAGGAGGCUCACAACAGGC | > 1000 nM |  | 
FC10 (ssRNA, 2'-F pyrimidines) RNA: GGGAGAUAAGAAUAAACGCUCAACAGACUCAGAGCGCCGUGAGCUUCUGAAGCAAUCGCAGGUUUCGACAGGAGGCUCACAACAGGC |  | < 1000 nM | 
FCN6 (ssRNA, 2'-F pyrimidines) RNA: GGGAGAUAAGAAUAAACGCUCAACAACGAUUAUCUUUUCGGCCGUGAAACCCAAACUGACGCCUUCGACAGGAGGCUCACAACAGGC | > 1000 nM |  | 
FCN52 (ssRNA, 2'-F pyrimidines) RNA: GGGAGAUAAGAAUAAACGCUCAAAGCCGAGCUAAUCCCGAAAGUGACCCGGAACGACGCGGCAUUCGACAGGAGGCUCACAACAGGC | > 1000 nM |  | 
FC14 (ssRNA, 2'-F pyrimidines) RNA: GGGAGAUAAGAAUAAACGCUCAAGUGUUGGAGCUCUUGAUUGGAAAAGUAGAACAAAUCGAAAUUCGACAGGAGGCUCACAACAGGC |  | < 1000 nM | 
FC30 (ssRNA, 2'-F pyrimidines) RNA: GGGAGAUAAGAAUAAACGCUCAAGUGUUGGAGCUCUUGAUUGGAAAAUUAGAGCAAAUCGAAAUUCGACAGGAGGCUCACAACAGGC |  | < 1000 nM | 
FC70 (ssRNA, 2'-F pyrimidines) RNA: GGGAGAUAAGAAUAAACGCUCAAGUGUUGGAGCUCUUGAUUGGAAAAGUAGAGCAAAACGAAAUUCGACAGGAGGCUCACAACAGGC |  | < 1000 nM | 
FC74 (ssRNA, 2'-F pyrimidines) RNA: GGGAGAUAAGAAUAAACGCUCAAGUGUUGGAGCUCUUGAUUGGAAAAGUAGAGCAAAUCGAAAUUCGACAGGAGGCUCACAACAGGC |  | < 1000 nM | 
FCN59 (ssRNA, 2'-F pyrimidines) RNA: GGGAGAUAAGAAUAAACGCUCAAAUGAUGCUCCUGAAGUAAUCACCAGGACAUCCUCGGCAUUUCGACAGGAGGCUCACAACAGGC | > 1000 nM |  | 
FC34 (ssRNA, 2'-F pyrimidines) RNA: GGGAGAUAAGAAUAAACGCUCAAAAGGCCGAACAACGAAGUUUGAUUCAGGUACUCAGCGUUCUUCGACAGGAGGCUCACAACAGGC | > 1000 nM |  | 
